Among the data in US20190256608A1 (GlaxoSmithKline, published 2019) are Kd values, retold here.

For this assay, the target named is cynomolgus PD-1 (cynomolgus). Nature of the assay: kinetic analysis (bio-light interferometry).

For orientation: Kd means the free concentration of one partner at which half of the binding sites on the other are occupied at equilibrium, for simple one-to-one binding. A low value points to a tighter complex.

B1: Pembrolizumab (antibody, human IgG4 S228P, kappa, V domains shown)
VH: QVQLVQSGVEVKKPGASVKVSCKASGYTFTNYYMYWVRQAPGQGLEWMGGINPSNGGTNFNEKFKNRVTLTTDSSTTTAYMELKSLQFDDTAVYYCARRDYRFDMGFDYWGQGTTVTVSS
VL: EIVLTQSPATLSLSPGERATLSCRASKGVSTSGYSYLHWYQQKPGQAPRLLIYLASYLESGVPARFSGSGSGTDFTLTISSLEPEDFAVYYCQHSRDLPLTFGGGTKVEIKR
notes: also called MK3475
With B1, the Kd turned out to be 0.118 nM.
